Data taken from article PMC11398520 (bioRxiv, 2024).

Assays:
[1] = molecular target: PS2 S-layer protein of Corynebacterium glutamicum (ex-vivo S-layer) (Corynebacterium glutamicum); experiment: cryo-EM structure
negative-stain EM = molecular target: the molecule itself; experiment: negative-stain EM

Molecule “PS2 S-layer protein of Corynebacterium glutamicum (ex-vivo S-layer) (natural protein)” has a stoichiometry N [1] of 6.

B1: PS2 assembly domain (PS2^AD; residues 30 to 483) (domain or fragment)
chain: AQETNPTFNITNGFNDADGSTIQPVGPVNHTEETLRDLTDSTGAYLEEFQNGTVEEIVEAYLQVQASADGFDPSEQAAYEAFEAARVRASQELAASAETITKTRESVAYALKVDQEATAAFEAYRNALRDAAISINPDGSINPDTSINLLIDAANAANRTDRAEIEDYAHLYTQTDIALETPQLAYAFQDLKALQAEVDADFEWLGEFGIDQEDGNYVQRYHLPAVEALKAEVDARVAAIEPLRADSIAKNLEAQKSDVLVRQLFLERATAQRDTLRVVEAIFSTSARYVELYENVENVNVENKTLRQHYSALIPNLFIAAVANISELNAADAEAAAYYLHWDTDLATNDEDEAYYKAKLDFAIETYAKILFNGEVWQEPLAYVQNLDAGARQEAADREAARAADEAYRAEQLRIAQEAADAQKAIAEALAKEAEGNNDNSSDNTETGSSDIGS
B1: binds (negative-stain EM).
